According to the supplement of paper PMC7125110:
± gives the standard error. For part of these data: This sample holds only a part of the variants without activity.

B1: glmS ribozyme (parent)
chain: AUAAAAGCGCCAGAACUACAGAAAUGUAGUUGACGAGGAGGAGGUUUAUCGAAUUUUCGGCGGAUGCCUCCAAA

Key:
Conditions in all cases: with glucosamine-6-phosphate
glucosamine-6-phosphate [1] = variants of: B1; assay: kcat; higher = faster cleavage; RNA array
How it was run: (§1)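 Using a hybridised Cy3 probe at 37 °C, barcoded ribozyme variants transcribed in situ by E. coli RNA polymerase on sequenced MiSeq chips were monitored across tiles imaged over ~14 h. The flow contained glucosamine-6-phosphate from 40 μM to 10 mM in HEPES/KCl/Mg(OAc)2 buffer. Signals were normalised to baseline and to non-cleaving reference variants before per-tile medians were fit to one- or two-exponential decays to yield kobs. Weighted Michaelis–Menten fits across concentrations gave kcat and KM.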

glucosamine-6-phosphate [2] = variants of: B1; assay: KM; higher = weaker cofactor use; RNA array
How it was run: as §1

glucosamine-6-phosphate [3] = variants of: B1; assay: self-cleavage kobs at 160 uM GlcN6P; higher = faster cleavage; RNA array
How it was run: as §1

glucosamine-6-phosphate [4] = variants of: B1; assay: self-cleavage kobs at 640 uM GlcN6P; higher = faster cleavage; RNA array
How it was run: as §1

glucosamine-6-phosphate [5] = variants of: B1; assay: self-cleavage kobs at 2500 uM GlcN6P; higher = faster cleavage; RNA array
How it was run: as §1

glucosamine-6-phosphate [6] = variants of: B1; assay: self-cleavage kobs at 10000 uM GlcN6P; higher = faster cleavage; RNA array
How it was run: as §1

glucosamine-6-phosphate [7] = variants of: B1; assay: self-cleavage kobs at 40 uM GlcN6P; higher = faster cleavage; RNA array
How it was run: as §1

| Variant | kcat (glucosamine-6-phosphate [1]) | KM (glucosamine-6-phosphate [2]) | self-cleavage kobs at 160 uM GlcN6P (glucosamine-6-phosphate [3]) | self-cleavage kobs at 640 uM GlcN6P (glucosamine-6-phosphate [4]) | self-cleavage kobs at 2500 uM GlcN6P (glucosamine-6-phosphate [5]) | self-cleavage kobs at 10000 uM GlcN6P (glucosamine-6-phosphate [6]) | self-cleavage kobs at 40 uM GlcN6P (glucosamine-6-phosphate [7]) |
| --- | --- | --- | --- | --- | --- | --- | --- |
| G40C U46C | 0.00119 ± 0.00012 s⁻¹ | 1800 ± 280 µM | 9.41e-05 ± 1.9e-05 s⁻¹ | 0.000304 ± 6.3e-05 s⁻¹ | 0.000729 ± 0.00014 s⁻¹ | 0.000967 ± 0.00024 s⁻¹ |  |
| U45G C58G | 6.11e-05 ± 9.3e-06 s⁻¹ | 4730 ± 1900 µM |  |  |  | 4.17e-05 ± 1.1e-05 s⁻¹ |  |
| G40U U47A | 0.00153 ± 0.00048 s⁻¹ | 1680 ± 730 µM | 0.000114 ± 2.9e-05 s⁻¹ | 0.000565 ± 0.0002 s⁻¹ | 0.00134 ± 0.00045 s⁻¹ | 0.00115 ± 0.00037 s⁻¹ | 6.16e-05 ± 2.8e-05 s⁻¹ |
| G41U C71A | 0.000252 ± 2.1e-05 s⁻¹ | 604 ± 120 µM | 5.27e-05 ± 9.4e-06 s⁻¹ | 0.000128 ± 1.2e-05 s⁻¹ | 0.000235 ± 2.8e-05 s⁻¹ | 0.000219 ± 2.8e-05 s⁻¹ |  |
| G41U C71G | 0.000121 ± 9e-06 s⁻¹ | 1780 ± 490 µM |  | 2.64e-05 ± 1.1e-05 s⁻¹ | 8.28e-05 ± 1.7e-05 s⁻¹ | 0.000102 ± 9.5e-06 s⁻¹ |  |
| U47G G51C U57C C68U | 1.54e-05 ± 3.7e-06 s⁻¹ |  |  |  |  |  | < 1e-05 s⁻¹ |
| G44U C71U | 0.000114 ± 4.5e-05 s⁻¹ |  |  |  | 9.61e-05 ± 1.4e-05 s⁻¹ | 8.62e-05 ± 1.2e-05 s⁻¹ | < 1e-05 s⁻¹ |
| G44A U55A | 0.000528 ± 5e-05 s⁻¹ | 2150 ± 420 µM | 5.44e-05 ± 2.2e-05 s⁻¹ | 0.000113 ± 2.3e-05 s⁻¹ | 0.000286 ± 6.8e-05 s⁻¹ | 0.000437 ± 6.1e-05 s⁻¹ |  |
| G41U U47A | 0.000627 ± 0.00021 s⁻¹ |  | 0.000127 ± 3.9e-05 s⁻¹ | 0.000232 ± 5.2e-05 s⁻¹ | 0.000656 ± 0.00012 s⁻¹ | 0.000706 ± 0.00012 s⁻¹ | 7.19e-05 ± 1.3e-05 s⁻¹ |
| G41U U47G | 0.00121 ± 0.0005 s⁻¹ |  | 3.94e-05 ± 1.2e-05 s⁻¹ | 0.000221 ± 4.5e-05 s⁻¹ | 0.000364 ± 8.6e-05 s⁻¹ | 0.00093 ± 0.00013 s⁻¹ | 4.35e-05 ± 1.2e-05 s⁻¹ |
| A42G A48C | 0.00074 ± 0.00011 s⁻¹ | 4500 ± 1200 µM |  | 9.68e-05 ± 2.1e-05 s⁻¹ | 0.000276 ± 8.7e-05 s⁻¹ | 0.000506 ± 7.8e-05 s⁻¹ |  |
| U45A U56G | 0.0614 ± 0.024 s⁻¹ | 3390 ± 1600 µM | 0.00188 ± 0.00049 s⁻¹ | 0.0108 ± 0.0024 s⁻¹ | 0.0272 ± 0.0087 s⁻¹ | 0.0457 ± 0.011 s⁻¹ | 0.000857 ± 0.00011 s⁻¹ |
| G40C U55C | 0.000721 ± 0.00014 s⁻¹ | 4590 ± 1400 µM | 2.05e-05 ± 5.9e-06 s⁻¹ | 0.00012 ± 3.6e-05 s⁻¹ | 0.000287 ± 8.2e-05 s⁻¹ | 0.000483 ± 7.8e-05 s⁻¹ |  |
| G44A G66A | 0.000681 ± 0.00022 s⁻¹ |  | 4.37e-05 ± 1.7e-05 s⁻¹ | 0.000259 ± 4.6e-05 s⁻¹ | 0.000848 ± 0.00022 s⁻¹ | 0.000527 ± 0.0001 s⁻¹ |  |
| U46C A48U | 8.27e-05 ± 1.4e-05 s⁻¹ |  |  |  | 6.44e-05 ± 1.3e-05 s⁻¹ | 6.9e-05 ± 9e-06 s⁻¹ |  |
| G43C C68U | 0.000722 ± 5.4e-05 s⁻¹ | 1370 ± 190 µM | 7.12e-05 ± 1.6e-05 s⁻¹ | 0.000235 ± 2.8e-05 s⁻¹ | 0.000572 ± 0.00012 s⁻¹ | 0.000615 ± 6.7e-05 s⁻¹ |  |
| A48C C67U | 0.000136 ± 1.3e-05 s⁻¹ | 4380 ± 1100 µM |  |  | 5.35e-05 ± 1.4e-05 s⁻¹ | 9.42e-05 ± 1.2e-05 s⁻¹ |  |

| Variant | kcat (glucosamine-6-phosphate [1]) | KM (glucosamine-6-phosphate [2]) | self-cleavage kobs at 160 uM GlcN6P (glucosamine-6-phosphate [3]) | self-cleavage kobs at 640 uM GlcN6P (glucosamine-6-phosphate [4]) | self-cleavage kobs at 2500 uM GlcN6P (glucosamine-6-phosphate [5]) | self-cleavage kobs at 10000 uM GlcN6P (glucosamine-6-phosphate [6]) | self-cleavage kobs at 40 uM GlcN6P (glucosamine-6-phosphate [7]) |
| --- | --- | --- | --- | --- | --- | --- | --- |
| U45G U54C | 0.0089 ± 0.00053 s⁻¹ | 1480 ± 160 µM | 0.000851 ± 0.00024 s⁻¹ | 0.00308 ± 0.00078 s⁻¹ | 0.00519 ± 0.00085 s⁻¹ | 0.00798 ± 0.001 s⁻¹ | 0.000233 ± 5.4e-05 s⁻¹ |
| U46G U47A | 0.0123 ± 0.0053 s⁻¹ |  | 0.00128 ± 0.00029 s⁻¹ | 0.00231 ± 0.00046 s⁻¹ | 0.00836 ± 0.0038 s⁻¹ | 0.0106 ± 0.0026 s⁻¹ |  |
| G40C G63C | < 1e-05 s⁻¹ |  | < 1e-05 s⁻¹ |  | < 1e-05 s⁻¹ |  |  |
| U45G U69G | 0.000184 ± 5.8e-05 s⁻¹ |  |  |  |  | 0.000152 ± 3.8e-05 s⁻¹ |  |
| G41U C58A | 1.21e-05 ± 4e-06 s⁻¹ |  |  |  |  |  |  |
| U47G A64G C70G | 3.26e-05 ± 9.4e-06 s⁻¹ |  |  |  |  |  | < 1e-05 s⁻¹ |
| U46G C68G | 0.000103 ± 4e-06 s⁻¹ | 678 ± 110 µM |  | 5.11e-05 ± 1.8e-05 s⁻¹ | 7.97e-05 ± 1.8e-05 s⁻¹ | 9.69e-05 ± 1.7e-05 s⁻¹ |  |
| U46G C68A | 3.1e-05 ± 2.2e-06 s⁻¹ |  |  |  |  | 3.1e-05 ± 1.1e-05 s⁻¹ |  |
| G40C C71A | 0.00654 ± 0.0028 s⁻¹ |  | 0.000451 ± 6.2e-05 s⁻¹ | 0.00213 ± 0.00024 s⁻¹ |  | 0.00527 ± 0.00096 s⁻¹ | 0.000225 ± 3.8e-05 s⁻¹ |
| G40A U47A | 0.00464 ± 0.00058 s⁻¹ | 1440 ± 270 µM |  | 0.00126 ± 0.00024 s⁻¹ | 0.0033 ± 0.00065 s⁻¹ | 0.00398 ± 0.00077 s⁻¹ | 0.000132 ± 2.1e-05 s⁻¹ |
| A42U C68G | 1.72e-05 ± 6.1e-06 s⁻¹ |  |  |  |  |  |  |
| A42C G66A | 0.000322 ± 2.8e-05 s⁻¹ | 1090 ± 210 µM |  | 0.000125 ± 1.5e-05 s⁻¹ | 0.000208 ± 2.9e-05 s⁻¹ | 0.000305 ± 4.2e-05 s⁻¹ |  |
| G40C A48U | 0.000238 ± 7.3e-05 s⁻¹ |  | < 1e-05 s⁻¹ |  |  | 5.01e-05 ± 8.4e-06 s⁻¹ | < 1e-05 s⁻¹ |
| U45C U56G | 0.00225 ± 0.00059 s⁻¹ | 4840 ± 1800 µM | 5.85e-05 ± 1.2e-05 s⁻¹ | 0.000335 ± 4.1e-05 s⁻¹ | 0.000677 ± 0.00011 s⁻¹ | 0.00156 ± 0.00019 s⁻¹ |  |
| U46G C50A | < 1e-05 s⁻¹ |  | < 1e-05 s⁻¹ |  |  |  |  |
| U46G U65A | 0.00378 ± 0.00067 s⁻¹ | 2420 ± 650 µM | 0.000198 ± 4.8e-05 s⁻¹ | 0.000703 ± 0.00015 s⁻¹ | 0.00212 ± 0.00033 s⁻¹ | 0.00296 ± 0.00047 s⁻¹ | 8.18e-05 ± 1.7e-05 s⁻¹ |
